Experimental data as given in the supplement of paper PMC12764529.
± gives the half width of the 95% confidence interval.

Key:
[1] = folding stability dG unfold from chymotrypsin proteolysis; higher = more stable
In short: (§1)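 Unfolding free energy was derived, per protease or combined, by relating Bayesian-fitted K50 values from sequencing counts to a sequence-predicted unfolded-state K50 and a shared folded-state K50. The underlying digests exposed cysteine-free mini-proteins under 80 residues, in a PA-tagged cDNA display construct, to trypsin and chymotrypsin at 11 threefold-diluted concentrations and to a no-protease condition. A filter kept only designs with AlphaFold2 dimer inter-PAE above 15.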

[2] = folding stability dG unfold from trypsin proteolysis; higher = more stable
In short: as §1

[3] = folding stability dG unfold (combined trypsin and chymotrypsin); higher = more stable
In short: as §1

Sequence	folding stability dG unfold [1]	folding stability dG unfold [2]	folding stability dG unfold [3]
SAGGSAGGSAKETLRMELELEIDGVVVRVEAEVELDPETNELHIRVKVEVEPLPPPLPPGLESAGGSAGGSA [r18_16_TrROS_Hall]	2.53 ± 0.34 kcal/mol	1.2 ± 0.2 kcal/mol	2.32 ± 0.33 kcal/mol
SAGGSAGGSAKIKIKVKPGEKVRIYNKKTKKEIAEVEVVEVKEGKIVVKLKNGKLYEIEIEPSAGGSAGGSA [r18_363_TrROS_Hall]	2.36 ± 0.06 kcal/mol	1.67 ± 0.033 kcal/mol	2.18 ± 0.052 kcal/mol
SAGGSAGGSAKIKPGEKVEITLKDGSKVIIEKKEDGKYLARIIDKKTNEVKTVPLDKIKLVSAGGSAGGSAG [r3_213_TrROS_Hall]	1.08 ± 0.046 kcal/mol	0.99 ± 0.057 kcal/mol	1.13 ± 0.14 kcal/mol
SAGGSAGGSAKIKVLIKITNKDGKKKEILLEAETEEEALEAAKKLAEKEINGKKYKIEIKPLSAGGSAGGSA [r18_457_TrROS_Hall]	2.08 ± 0.044 kcal/mol	1.83 ± 0.074 kcal/mol	1.96 ± 0.11 kcal/mol
SAGGSAGGSAKIRVGGEEIELPPGKPVMFRFPENGYMIKITIKPDPKENKWKIDELKVYPMDSAGGSAGGSA [r18_222_TrROS]	1.83 ± 0.16 kcal/mol	1.13 ± 0.089 kcal/mol	1.46 ± 0.19 kcal/mol
SAGGSAGGSAKKITIYLPNAEVVEVEYDEETDVITIRVKNEDGSEYEFRFYPDGSVEIRPVSAGGSAGGSAG [r3_348_TrROS_Hall]	3.65 ± 0.15 kcal/mol	2.95 ± 0.16 kcal/mol	3.4 ± 0.14 kcal/mol
SAGGSAGGSAKKKVIVIELPEDMTLEEALALAKALAPPGAEIVIRRDGKLYVIKIEDPEKLSAGGSAGGSAG [r3_50_TrROS_Hall]	2.82 ± 0.084 kcal/mol	2.24 ± 0.11 kcal/mol	2.55 ± 0.17 kcal/mol
SAGGSAGGSAKKKVKIKLEFDKETNTLRIEVEDEDTGEKTEIEITIKLEPPPPPPLPEELKKSAGGSAGGSA [r18_361_TrROS_Hall]	1.42 ± 0.22 kcal/mol	1.72 ± 0.18 kcal/mol	1.73 ± 0.61 kcal/mol
SAGGSAGGSAKKKVKVVEIKITYDKEKNEYYIEAKVYNENTGETKTVRIKVKLKPGQKLKFSAGGSAGGSAG [r3_1_TrROS_Hall]	1.71 ± 0.066 kcal/mol	1.65 ± 0.041 kcal/mol	1.72 ± 0.087 kcal/mol
SAGGSAGGSAKKTLTVTVKAEPSEGAPAIAKEVAEKLGLPDAKVLSISYDPETGELTITFEYSAGGSAGGSA [r18_481_TrMRF]	4.56 ± 0.097 kcal/mol	4.21 ± 0.2 kcal/mol	4.61 ± 0.14 kcal/mol
SAGGSAGGSAKPDKPIKVKVTLYNPATGEKTVVEVEVPPHVKPEEVAEALRKEFGAARVEVESAGGSAGGSA [r18_58_TrMRF]	3.112 ± 0.03 kcal/mol	3.05 ± 0.086 kcal/mol	3.08 ± 0.057 kcal/mol
SAGGSAGGSAKPEAVAPAVFTLDGVPYLVPVRVLEAGLSPDQKLLVLGTLPNGEPFLAVFDASAGGSAGGSA [r18_54_TrMRF]	1.57 ± 0.082 kcal/mol	0.744 ± 0.058 kcal/mol	1.27 ± 0.12 kcal/mol
SAGGSAGGSAKPEKPEKVELKPKVKFVKVKVRLRFSFTLENGEKVEVELEATFLFVDGKLVSAGGSAGGSAG [r3_380_TrROS_Hall]	5.31 ± 0.13 kcal/mol	3.97 ± 0.22 kcal/mol	5.11 ± 0.2 kcal/mol
SAGGSAGGSAKPKVKIKIEVTVNEDGTVTVRAEIEVNGKKYTIEVKIKIKAPKPEKVKLFKKSAGGSAGGSA [r18_507_TrROS_Hall]	-0.2 ± 0.84 kcal/mol	0.919 ± 0.066 kcal/mol	0.497 ± 0.48 kcal/mol
SAGGSAGGSAKSFWIDSPEQAEELADELQQKGPNVEPTVERDDNNGWYQLEIPNGKDIVIWGSAGGSAGGSA [r18_154_TrROS]	0.73 ± 0.19 kcal/mol	-0.417 ± 0.2 kcal/mol	0.272 ± 0.24 kcal/mol
SAGGSAGGSAKTIKVLVRDKETGEVFEVEAEIVEFDEETGELLIKVRLPNGKTLTLSAEELLSAGGSAGGSA [r18_334_TrROS_Hall]	4.12 ± 0.1 kcal/mol	2.54 ± 0.098 kcal/mol	3.71 ± 0.21 kcal/mol
SAGGSAGGSAKTLTLTTPNGDKVEVKLYELPDDFVLAEIKVLATGEKFYALLTKDGTVYLASAGGSAGGSAG [r3_15_TrMRF]	3.49 ± 0.15 kcal/mol	2.47 ± 0.084 kcal/mol	3.06 ± 0.13 kcal/mol
SAGGSAGGSAKTVTLTIEITNEDGKKFTAKIEVTYDEETGEFTVRIEIFDKNGKLIAEFPLSAGGSAGGSAG [r3_154_TrROS_Hall]	5.1 ± 0.1 kcal/mol	3.72 ± 0.17 kcal/mol	4.98 ± 0.2 kcal/mol
SAGGSAGGSAKVEPVGVDPKNLVVVYRFENFTVAVTYDPESGKVTVRITDPDGNVLEFELSSAGGSAGGSAG [r3_25_TrMRF]	4.112 ± 0.041 kcal/mol	2.24 ± 0.077 kcal/mol	3.71 ± 0.086 kcal/mol
SAGGSAGGSAKVILLPSPDDSVVLITVHPDDTVEVTVLRLNPEDPTYEPVTVTVPLSYPELFSAGGSAGGSA [r18_503_TrMRF]	0.791 ± 0.19 kcal/mol	0.903 ± 0.044 kcal/mol	0.843 ± 0.18 kcal/mol
SAGGSAGGSAKYKPIGELEFEFENGIRLRVTFYEGEGEKIAIVEIEIPEPSLEEAIKILESSAGGSAGGSAG [r3_158_TrMRF]	2.79 ± 0.037 kcal/mol	2.14 ± 0.095 kcal/mol	2.56 ± 0.09 kcal/mol

Sequence	folding stability dG unfold [1]	folding stability dG unfold [2]	folding stability dG unfold [3]
SAGGSAGGSALDPSAPYVVLIDIDIEPEKAEVEKIPGIPKYIVKKIDLKITIKIEIVSAKDASAGGSAGGSA [r18_137_TrMRF]	3.14 ± 0.087 kcal/mol	2.28 ± 0.17 kcal/mol	2.84 ± 0.08 kcal/mol
SAGGSAGGSALELIKEIAEEHNIPVDIEPTGNKIRVEIEMPNPDGQPVKHTIEIPIPPDENQSAGGSAGGSA [r18_27_TrROS]	1.08 ± 0.078 kcal/mol	0.389 ± 0.11 kcal/mol	0.975 ± 0.2 kcal/mol
SAGGSAGGSALLEALKALPPNATLTLVTVETRTETVTDADGSTHTRTTTRVTVTTITIRPEDLSAGGSAGGS [r12_805_TrROS_Hall]	3.67 ± 0.089 kcal/mol	2.27 ± 0.12 kcal/mol	3.18 ± 0.12 kcal/mol
SAGGSAGGSALPDLEFPFELVEEVEVPVYDPLSDEVLGTVRVWKVRVPGGPELTLVEFDPESAGGSAGGSAG [r3_166_TrMRF]	1.3 ± 0.047 kcal/mol	1.27 ± 0.017 kcal/mol	1.35 ± 0.061 kcal/mol
SAGGSAGGSALVVRLENGKEILIEGMSEEEIKELLDKLLPPEEKKNLKIVKVEVFEVEKPESAGGSAGGSAG [r3_340_TrROS_Hall]	1.14 ± 0.096 kcal/mol	1.62 ± 0.1 kcal/mol	1.29 ± 0.18 kcal/mol
SAGGSAGGSAMDVFTAALNNKELEEAIKKASPDEKEIEIELPGGKKIRIFRTDDGGYIFEPSAGGSAGGSAG [r3_124_TrMRF]	1.32 ± 0.11 kcal/mol	1.8 ± 0.055 kcal/mol	1.52 ± 0.11 kcal/mol
SAGGSAGGSAMETVYIPKEEVEKDPEKLEEIKEKLKKELEEKGKKVEFKEDPNGGYTITVESAGGSAGGSAG [r3_75_JUSTAS]	0.855 ± 0.029 kcal/mol	0.343 ± 0.054 kcal/mol	0.663 ± 0.13 kcal/mol
SAGGSAGGSAMETYEIEVNGKLITITRSEDGTYKITDKDTGKTITIPAEDLKKLKPGDKLLSAGGSAGGSAG [r3_256_TrROS_Hall]	2.18 ± 0.036 kcal/mol	1.79 ± 0.078 kcal/mol	2.15 ± 0.14 kcal/mol
SAGGSAGGSAMFPDNTTVIEKEVPSSDVESAIEEIKKEYGVENYEVTTEPRPGTVKITVTIKPSAGGSAGGS [r12_929_JUSTAS]	1.34 ± 0.038 kcal/mol	1.65 ± 0.064 kcal/mol	1.53 ± 0.093 kcal/mol
SAGGSAGGSAMIEDPATGRVYELDPSVPTVTVYEKTEGEGGEVVEKGVVEADPANPEKALLESAGGSAGGSA [r18_448_JUSTAS]	0.826 ± 0.073 kcal/mol	0.45 ± 0.048 kcal/mol	0.716 ± 0.069 kcal/mol
SAGGSAGGSAMIGGGEDGNLVFLVTEDGKPLVLVAPPDEIKKILEELGIKDVVVVKPLPELSAGGSAGGSAG [r3_141_TrMRF]	-0.0844 ± 0.13 kcal/mol	1.18 ± 0.043 kcal/mol	0.762 ± 0.1 kcal/mol
SAGGSAGGSAMITYTAPGGTPVTVTPDPVTGTLSATFPDGSVITAPVVGDTIPVTVVPPAAVSAGGSAGGSA [r18_405_JUSTAS]	-0.295 ± 0.11 kcal/mol	1.37 ± 0.023 kcal/mol	0.851 ± 0.042 kcal/mol
SAGGSAGGSAMKEIKIELTYEDEEEAEKKAKEEKEKIKKELEEKGIKVEKITVEIHPPYHHSAGGSAGGSAG [r3_463_JUSTAS]	1.12 ± 0.067 kcal/mol	-0.647 ± 0.095 kcal/mol	0.796 ± 0.14 kcal/mol
SAGGSAGGSAMKIEIEKTEDTIKVRIKRKDGKEIEIEIPKENMSLEEIKKLAEELGIEKVEPSAGGSAGGSA [r18_83_TrROS_Hall]	1.63 ± 0.073 kcal/mol	1.49 ± 0.17 kcal/mol	1.6 ± 0.17 kcal/mol
SAGGSAGGSAMKIPPGETVEEVELSFLPNGEIILKKTTITKKGNTTTVETEVKIVKPDVPLSAGGSAGGSAG [r3_49_JUSTAS]	0.701 ± 0.067 kcal/mol	0.877 ± 0.027 kcal/mol	0.836 ± 0.1 kcal/mol
SAGGSAGGSAMKKLEYTIPVPPGTLSPEKVKELFKKKYPEYENKEIKVEFSPDGTVKITVIESAGGSAGGSA [r18_65_JUSTAS]	3.17 ± 0.037 kcal/mol	2.38 ± 0.051 kcal/mol	2.92 ± 0.066 kcal/mol
SAGGSAGGSAMKRVTLTFPSTGKTLTFDFTTEEDIEAAIKAALGPEVDPAKVTVTVLPPGAASAGGSAGGSA [r18_350_JUSTAS]	2.62 ± 0.054 kcal/mol	1.04 ± 0.054 kcal/mol	2.12 ± 0.3 kcal/mol
SAGGSAGGSAMKTITLKDEKGNPLTAEVEKLPNGTIKITITKPGGEKTTYTIPPGEKITLPVSAGGSAGGSA [r18_115_JUSTAS]	2.98 ± 0.05 kcal/mol	2.34 ± 0.16 kcal/mol	2.77 ± 0.14 kcal/mol
SAGGSAGGSAMKVTVEEEELEVEPGETVKIKIRLPNGEEREFSLEDLKKLPPGEAEVEIERVSAGGSAGGSA [r18_394_TrROS_Hall]	0.729 ± 0.13 kcal/mol	0.583 ± 0.076 kcal/mol	0.785 ± 0.18 kcal/mol
SAGGSAGGSAMKVVSVEAAPGQTVTVRVLVEDPETQELYELEVTVTVTAPEPVTVELPPEASAGGSAGGSAG [r3_271_TrROS_Hall]	2.47 ± 0.082 kcal/mol	1.89 ± 0.15 kcal/mol	2.03 ± 0.23 kcal/mol
